Results: article PMC6761020

Molecular target: Human Type IV Collagen (human) (UniProt P02462)
Assay: ELISA

Sequence of Human Type IV Collagen (human) (P02462 173-1669): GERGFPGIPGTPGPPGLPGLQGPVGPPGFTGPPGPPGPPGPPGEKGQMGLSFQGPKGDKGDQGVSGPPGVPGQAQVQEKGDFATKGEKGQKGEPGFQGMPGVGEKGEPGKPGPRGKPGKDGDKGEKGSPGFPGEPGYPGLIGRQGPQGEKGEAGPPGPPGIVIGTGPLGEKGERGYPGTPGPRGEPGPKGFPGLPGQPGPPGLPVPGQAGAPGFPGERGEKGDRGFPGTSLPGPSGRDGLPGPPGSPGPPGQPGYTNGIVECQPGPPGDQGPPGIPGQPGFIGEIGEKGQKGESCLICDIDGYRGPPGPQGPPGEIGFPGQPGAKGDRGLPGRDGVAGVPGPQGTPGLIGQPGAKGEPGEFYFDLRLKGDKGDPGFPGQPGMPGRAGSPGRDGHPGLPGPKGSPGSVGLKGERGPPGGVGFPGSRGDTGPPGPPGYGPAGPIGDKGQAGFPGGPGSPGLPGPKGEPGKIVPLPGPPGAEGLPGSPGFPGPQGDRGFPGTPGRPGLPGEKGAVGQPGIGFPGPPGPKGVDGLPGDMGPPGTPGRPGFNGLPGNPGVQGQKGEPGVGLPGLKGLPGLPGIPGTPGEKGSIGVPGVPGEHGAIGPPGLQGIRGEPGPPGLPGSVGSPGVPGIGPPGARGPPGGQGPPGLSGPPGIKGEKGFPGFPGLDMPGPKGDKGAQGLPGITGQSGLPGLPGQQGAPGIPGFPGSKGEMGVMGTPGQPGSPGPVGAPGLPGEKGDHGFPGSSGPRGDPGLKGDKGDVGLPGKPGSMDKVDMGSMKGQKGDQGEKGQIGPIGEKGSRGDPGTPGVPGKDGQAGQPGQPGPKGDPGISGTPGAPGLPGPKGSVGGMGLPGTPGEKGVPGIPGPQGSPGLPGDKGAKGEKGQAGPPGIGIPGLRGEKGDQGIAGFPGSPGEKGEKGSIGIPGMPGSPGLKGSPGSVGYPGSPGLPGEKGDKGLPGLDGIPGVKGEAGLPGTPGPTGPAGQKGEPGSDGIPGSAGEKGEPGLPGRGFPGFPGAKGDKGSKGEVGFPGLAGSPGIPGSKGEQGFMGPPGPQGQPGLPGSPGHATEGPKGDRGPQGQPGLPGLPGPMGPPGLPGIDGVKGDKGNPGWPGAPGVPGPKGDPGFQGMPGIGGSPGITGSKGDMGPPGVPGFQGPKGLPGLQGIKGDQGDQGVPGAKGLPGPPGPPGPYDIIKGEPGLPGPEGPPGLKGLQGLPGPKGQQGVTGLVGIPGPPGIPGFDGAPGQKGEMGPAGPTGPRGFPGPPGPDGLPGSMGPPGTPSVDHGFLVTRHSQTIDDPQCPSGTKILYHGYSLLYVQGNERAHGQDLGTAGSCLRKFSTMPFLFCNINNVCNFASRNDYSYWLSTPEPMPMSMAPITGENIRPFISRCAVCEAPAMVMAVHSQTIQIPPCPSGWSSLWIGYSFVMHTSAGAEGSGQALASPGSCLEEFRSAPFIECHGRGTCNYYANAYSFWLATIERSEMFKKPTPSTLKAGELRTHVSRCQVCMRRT

## von Willebrand factor (human, plasma) (from UniProt P04275 764-2813) (natural protein)
  percent reduction of binding by 10 μg/ml ARC1779 against saline: 34%
